Reference: US20240228586A1

Biological target: IL-12 receptor complex (IL-12Rb1 and IL-12Rb2) on preactivated primary mouse CD8+ T cells (mouse) (UniProt Q60837)
Experiment: cell-based or functional assay

IL-12 receptor complex (IL-12Rb1 and IL-12Rb2) on preactivated primary mouse CD8+ T cells (mouse), sequence (Q60837 20-738, chain 1 of 2): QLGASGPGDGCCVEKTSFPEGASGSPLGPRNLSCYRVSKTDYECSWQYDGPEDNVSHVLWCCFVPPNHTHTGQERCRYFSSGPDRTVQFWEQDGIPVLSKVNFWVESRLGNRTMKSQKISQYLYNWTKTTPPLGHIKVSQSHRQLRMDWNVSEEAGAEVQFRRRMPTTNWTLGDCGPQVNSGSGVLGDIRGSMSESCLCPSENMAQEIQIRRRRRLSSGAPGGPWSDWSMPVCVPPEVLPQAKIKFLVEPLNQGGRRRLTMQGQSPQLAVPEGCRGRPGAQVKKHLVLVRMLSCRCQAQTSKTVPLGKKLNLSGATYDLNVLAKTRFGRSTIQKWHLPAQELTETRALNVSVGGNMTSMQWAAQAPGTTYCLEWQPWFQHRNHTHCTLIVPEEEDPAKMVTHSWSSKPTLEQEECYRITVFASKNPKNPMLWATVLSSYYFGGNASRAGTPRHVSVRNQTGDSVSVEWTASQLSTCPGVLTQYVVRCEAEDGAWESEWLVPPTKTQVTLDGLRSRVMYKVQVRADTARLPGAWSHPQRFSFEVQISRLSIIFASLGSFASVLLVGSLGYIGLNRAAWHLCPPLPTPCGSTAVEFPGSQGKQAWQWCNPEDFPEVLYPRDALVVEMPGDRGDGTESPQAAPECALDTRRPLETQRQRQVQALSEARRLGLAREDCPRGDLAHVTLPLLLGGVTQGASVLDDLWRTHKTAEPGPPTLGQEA
IL-12 receptor complex (IL-12Rb1 and IL-12Rb2) on preactivated primary mouse CD8+ T cells (mouse), sequence (chain, as listed by the source, chain 2 of 2): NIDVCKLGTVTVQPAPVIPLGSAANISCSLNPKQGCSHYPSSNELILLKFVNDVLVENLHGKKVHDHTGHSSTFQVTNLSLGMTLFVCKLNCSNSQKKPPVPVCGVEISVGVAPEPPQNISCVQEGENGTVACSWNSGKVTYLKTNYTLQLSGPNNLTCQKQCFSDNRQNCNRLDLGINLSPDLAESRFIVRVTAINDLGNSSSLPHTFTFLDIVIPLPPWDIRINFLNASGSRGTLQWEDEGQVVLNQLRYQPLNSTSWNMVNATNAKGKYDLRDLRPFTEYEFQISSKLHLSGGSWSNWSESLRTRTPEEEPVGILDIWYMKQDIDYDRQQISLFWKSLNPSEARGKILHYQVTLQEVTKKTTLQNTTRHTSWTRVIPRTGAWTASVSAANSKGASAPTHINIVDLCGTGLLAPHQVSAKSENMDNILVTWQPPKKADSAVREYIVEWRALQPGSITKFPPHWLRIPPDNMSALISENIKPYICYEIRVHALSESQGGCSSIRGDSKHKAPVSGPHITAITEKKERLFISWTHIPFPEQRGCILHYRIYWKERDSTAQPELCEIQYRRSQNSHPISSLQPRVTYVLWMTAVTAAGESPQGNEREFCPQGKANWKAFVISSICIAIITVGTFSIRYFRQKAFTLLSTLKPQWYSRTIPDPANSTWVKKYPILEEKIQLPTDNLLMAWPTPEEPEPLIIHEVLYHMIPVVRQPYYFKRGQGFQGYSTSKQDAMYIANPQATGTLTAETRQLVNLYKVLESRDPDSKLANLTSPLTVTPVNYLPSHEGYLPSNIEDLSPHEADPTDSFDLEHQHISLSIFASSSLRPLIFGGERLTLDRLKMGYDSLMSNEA

STAT4 phosphorylation in preactivated primary mouse CD8+ T cells, EC50 compared with unmodified IL-12 (fold decrease)	Substance
100	M-L1-IL12 (mouse IL-12Rb1 mask fused through the (G3S)11 linker to the N-terminus of mouse p35, with mouse p40) (from UniProt P43432 23-335)
100	M-L1-IL12-CBD (from UniProt P04275 1670-1874)
100	M-L1-IL12-MSA (from UniProt P43432 23-335)
